Series [1] concerns the target HdeB (acid stress chaperone HdeB), wild type, C-terminal His6 (UniProt P0AET2). Nature of the series: Intrinsic tryptophan fluorescence (emission maximum, intensity, acrylamide Stern-Volmer quenching constant, steady-state anisotropy) as a function of pH. Particulars: pH 1.5-7.5; 20 °C; Not stated as a number. It varies with the McIlvaine mixing ratio; 10 mM KCl below pH 2.6.; McIlvaine buffer (mixtures of 0.1 M citric acid and 0.2 M Na2HPO4) for pH 2.6-7; 10 mM KCl adjusted with HCl for more ac.

The target in series [2] is HdeB E41Q, C-terminal His6 E41Q (UniProt P0AET2). The series is described as above. To be noted: pH 1.5-7.5; 20 °C; Not stated as a number. It varies with the McIlvaine mixing ratio; 10 mM KCl below pH 2.6.; McIlvaine buffer (mixtures of 0.1 M citric acid and 0.2 M Na2HPO4) for pH 2.6-7; 10 mM KCl adjusted with HCl for more ac.
A further series addresses Asp76 (UniProt position 76, TLNETDLTQIP). Nature of the series: fluorescence. To be noted: 20 °C; not stated (McIlvaine buffer: mixtures of 0.1 M citric acid and 0.2 M Na2HPO4; 10 mM KCl adjusted with HCl for more acid solutions); McIlvaine buffer (citric acid / Na2HPO4) for pH 2.6-7; 10 mM KCl/HCl for more acid solutions; 50 uM protein, no ligand; dimer at neutral pH, monomer below about pH 3.

Series [3] deals with the molecule itself. The series can be described thus: SEC; gel filtration at neutral pH (pH 7).
Series [4] deals with the molecule itself. Nature of the series: other fluorescence titration; emission maximum against HdeB concentration (1-100 μM, as monomers) at pH 7.5; dimer to monomers.
Series [5] deals with the molecule itself. Nature of the series: crystal structure; methylated HdeB-His6 at 15 mg/ml; 50% (v/v) polyethylene glycol 400, 0.1 M acetate pH 4.5, 0.2 M Li2SO4; 1.5 Å; dimer found with PISA.
Series [6] concerns the molecule itself. Nature of the series: other fluorescence titration; intrinsic tryptophan fluorescence (emission maximum, acrylamide quenching, anisotropy) against pH 1.5 to 7.5; 50 μM HdeB, McIlvaine buffer, 20 °C; apparent pKa; neutral side of the transition.

The text below walks through data of publication PMC3299563, “Salt Bridges Regulate Both Dimer Formation and Monomeric Flexibility in HdeB and May Have a Role in Periplasmic Chaperone Function” (Journal of Molecular Biology, 2011).

Positions count from the first letter of the chain named. Numbers in names are those of the source. A value given as a limit tells only on which side of the number the result lay.

On to “HdeB (acid stress chaperone HdeB), wild type, C-terminal His6”, for which the “effective pKa of dimer dissociation (midpoint of the dimer-to-monomer transition at 50 uM)” value in series [1] is recorded as “effective pKa ≈ 3 for dissociation of the dimer”. Take HdeB E41Q, C-terminal His6 E41Q: the “shift of the apparent pKa of dimer dissociation relative to wild type (50 uM)” value in series [2] is “apparent pKa ∼ 0.5 pH units higher than that of wild type”. On to “Acid stress chaperone HdeB (HdeB-His6 WT) (Escherichia coli)”, for which the pKa with Asp76 is given as 2.9.

Consider “Acid stress chaperone HdeB H59N (His6-tagged) (Escherichia coli; H59N)”, for which the pKa with Asp76 is given as 3.5.

B1: HdeB D76N (natural protein, E. coli, UniProt P0AET2 30-108, looked up)
chain: ANESAKDMTCQEFIDLNPKAMTPVAWWMLHEETVYKGGDTVTLNETNLTQIPKVIEYCKKNPQKNLYTFKNQASNDLPN
notes: HdeB, E. coli, with D76N; residue numbers count on the precursor; Probably made from the HdeB-His6 construct; also called D67N (as printed in two places)
Consider B1, for which the binding result in series [3] is “binds”.

B2: HdeB E41Q (natural protein, E. coli, UniProt P0AET2 30-108, looked up)
chain: B1 chain with E12Q, N47D
notes: HdeB, E. coli, with E41Q; residue numbers count on the precursor; The methods speak of 'purified HdeB-His6 WT and E41Q samples'; probably the same construct and host as the wild type; also called E41Q mutant; source: purified mutant protein
B2 returned a dissociation constant Kd in series [4] of 34 µM. This counts as double-digit micromolar.

B3: HdeB (methylated) (natural protein, E. coli, UniProt P0AET2 30-108, looked up)
chain: B1 chain with N47D
modifications: reductively methylated lysines: doubly methylated K48, K88 and K93; some modification of K35, K65, K89 and K99; K82 apparently unmodified
notes: HdeB, E. coli; A30 to A102 ordered, six C-terminal residues and the His-tag disordered; residue numbers count on the precursor; A selenomethionine variant, treated identically, was used for phasing only; also called methylated HdeB-His6; HdeB after reductive methylation; source: E. coli MG1655ΔhdeAB, purified (Ni resin, gel filtration), then reductive methylation and gel filtration; not shown: …
Turning to B3, the “stoichiometry N” value in series [5] stood at 2.

B4: HdeB-His6 WT (natural protein, E. coli, UniProt P0AET2 30-108, looked up)
chain: B1 chain with N47D
notes: HdeB, E. coli periplasmic acid-stress chaperone; begins at A30; A30 to A102 ordered in the crystal plus six disordered C-terminal residues; residue numbers count on the precursor; Cloned with hdeA (hdeAB genes) in pTrc99A; primers are in the Supplementary Data; also called HdeB WT; wild type; source: E. coli MG1655ΔhdeAB, plasmid pTrcHdeABHis6, 1 mM IPTG, purified (Ni resin, gel filtration); not …
For the molecule B4, the “stoichiometry N” value in series [3] was determined as 2. In series [4], the Kd is less than 1 µM.

B5: HdeB H59N (natural protein, E. coli, UniProt P0AET2 30-108, looked up)
chain: B1 chain with H30N, N47D
notes: HdeB, E. coli, with H59N; residue numbers count on the precursor; Probably made from the HdeB-His6 construct; also called H59N mutant
Turning to B5, in series [6], the binding result is reported as “binds”.
